A short description of series [1]: Peptide release from nanoprobes under various time intervals (UV-vis absorbance). In kind it is physicochemical. The settings on record: 0.5 mg/mL. The text has this: The stability and capability of cleavage of the pH linker were also studied. […] More importantly, TEM images of UCNP-P5 at different pH buffers were observed and investigated in FIG. 1, providing direct evidence on pH-responsive peptide release from UCNP.

Series [2] can be described thus: Peptide release from nanoprobes under various pH buffers (UV-vis absorbance). In kind it is physicochemical. To be noted: 24 h in buffer, 0.5 mg/mL. The text has this:
The stability and capability of cleavage of the pH linker were also studied. […] More importantly, TEM images of UCNP-P5 at different pH buffers were observed and investigated in FIG. 1, providing direct evidence on pH-responsive peptide release from UCNP. […]

Series [3] addresses EBNA1 (DNA-binding domain fragment of a.a.468-607) (Epstein-Barr virus, UniProt P03211). The series is described as follows: EBNA1 dimerization/oligomerization inhibition assay. The series is classed as biochemical. The settings on record: 0.3 mg/mL nanoprobe, 90 mg EBNA1, DSS crosslinking, SDS gel. On the procedure:
EBNA1 dimerization/oligomerization inhibition assays were performed to reveal the ability of interrupting EBNA1 dimerization/oligomerization in the presence of the previous nanoprobe UCNP-P4 and the nanoplatforms in situ.
(conc.: 0.3 mg/mL) at 4° C. overnight. Then, 2 mM disuccinimidyl suberate (DSS) was added to allow the samples to undergo crosslinking reaction at room temperature for 30 min. The samples were run and separated on an SDS-denaturing gel and proteins were detected using Coomassie Blue staining. PBS buffer was used as control group.

Series [4] has as its system p65. The series is described as follows: Western blot of p65 (NF-κB) in LCL3 cells. In kind it is cell-based. From the text: (§1) NF-κB signaling pathway is critical for the survival of EBV-infected tumor cells. Here we investigated if our nanoprobes could affect this oncogenic pathway. EBV-positive LCL3 and C666 cells were used as models, EBV-negative HK1 cells were used as control and Western blot was used to analyze the protein expression of p65, a major transcription factor in the NF-κB family. […] GAPDH and Histone are regarded as internal standards in cytosolic and nuclear fractions, respectively. […] This is consistent with the cellular uptake results.
(§2) Western blotting: EBV-positive C666, LCL3 and EBV-negative HK1 cell pellets were treated with phosphatase and protease inhibitors at 0-4° C. for 30 min. The total protein concentrations were calculated by protein absorbance. The protein was resolved by sodium dodecyl sulfate-polyacrylamide gel electrophoresis (SDS-PAGE) and transferred to cellulose filter membranes. The membranes were blocked with 3% BSA in Tris-buffered saline in 0.1% Tween 20 (TBST) for 1 h with gentle shaking and subsequently incubated with primary antibodies (1:1000) in 3% BSA in TBST at 4° C. for overnight. After rinsing with TBST buffer three times, the blots were then incubated with corresponding secondary anti-rabbit antibody (1:6000) for 1 h. After that, the blots were rinsed again with 3% BSA in TBST for 1 h shaking at room temperature. Lastly, the density of bands was determined by image analysis system after washing with TBST buffer three times.

Series [5] has as its system p65. In words: Western blot of p65 (NF-κB) in C666 cells. In kind it is cell-based.
Text: as §1, §2

In a further series the test system is EBV-positive C666 cells. The series is described as follows: Two-photon confocal imaging, C666. The series is classed as cell-based. The settings on record: mainly from the nuclei, 24 h incubation. As for the experimental part:
After the study of cellular uptake, fluorescent confocal microscopy was used to study the sub-cellular localization with the same set of EBV-/LMP1-positive and -negative cell lines. All these cell lines were treated with as-prepared samples for different time intervals of 1 h, 3 h, 6 h, 12 h and 24 h. Fluorescence signals in the cells were imaged under 980 nm excitation.
The cells were then co-stained with 0.05 mM nuclear dye DRAQ5 for 0.5 h for confocal imaging with a Leica SP8 confocal microscope equipped with a coherent femtosecond laser (690-1050 nm), argon laser (432 nm, 457 nm and 488 nm), He—Ne laser (632 nm), UV lamp. A stage-top cell culture chamber was also used to maintain the atmospheric conditions of 2-7% CO2 and a temperature of 37° C.

In the next series the test system is C666 derived xenografts. In words: In vivo suppression assay, C666 xenograft. The text has this: To determine the antitumor efficacy of the new nanoprobes in vivo, their therapeutic effects were investigated in C666 and HeLa derived xenografts in BALB/c nude mice. The mice were randomly divided into five groups: (1) control (PBS), (2) UCNP, (3) UCNP-P5, (4) UCNP-P6, (5) UCNP-P7. In order to recapitulate the clinical setting of drug delivery, intravenous injection (via a tail vein) was used to deliver these agents to the immunocompromised animal.
In vivo suppression assays: EBV-positive C666 and EBV-negative HeLa cells were suspended in 200 μL of serum-free RMPI 1640 and DMEM respectively. Female BALB/c nude mice (6-8 weeks) which obtained from HKU were then injected with the cells in the right flank. Intravenous injections were performed when the average tumor volumes reached ˜200 mm^3. 0.25 mg/tumor dose of UCNP and UCNP-Pn [n=5, 6 and 7 (SEQ ID NO: 5, 6, 7)] in […] PBS buffer were injected through tail vein of mice using a 24-gauge syringe. Mice injected with the same volume of PBS buffer served as control. The body weight and tumor volumes of the mice were measured three times per week; in which the latter is calculated by (L×W^2)/2, where L and W are the longer and shorter tumor dimensions respectively. Intravenous injection at the tail vein were performed twice a week and the mice were sacrificed after 33-day experimental period; the tumors were extracted and weighed. The treatment groups are unknown to the investigators for the experimental and data analysis processes. The animal experiments conducted were approved by the Department of Health of the HKSAR Government. All animal procedures are within the Guidelines for Care and Use of Laboratory Animals of HKBU and approved by the Animal Ethics Committee of HKBU.
Hematoxylin and eosin (H&E) staining: In general, the transplanted C666 and HeLa derived tumor tissues were collected and fixed with formalin, followed by embedding in paraffin. The histologic sections were then stained with hematoxylin and eosin. Other major organ tissues (heart, liver, spleen, lung, kidney, brain) were conducted in the same procedures.

Where no end group is shown, it is not given here. [ ]: non-standard residue; d: D form. Ahx = NCCCCCC(=O)O

Chain of EBNA1 (DNA-binding domain fragment of a.a.468-607) (P03211 468-607): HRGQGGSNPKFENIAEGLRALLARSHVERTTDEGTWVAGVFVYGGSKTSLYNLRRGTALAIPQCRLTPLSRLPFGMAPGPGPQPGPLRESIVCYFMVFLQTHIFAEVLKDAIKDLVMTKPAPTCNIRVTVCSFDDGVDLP

In the case of “UCNP-P6: UCNP is NaGdF4:Yb^3+, Er^3+@NaGdF4 and the plurality of polypeptides is Ahx-RrRKGGYFMVFGGFWLY (SEQ ID NO: 6) ([Ahx]R[dR]RKGGYFMVFGGFWLY; also: UCNP conjugate)”, the Peptide release rate is 0% in series [1] (1 h); 0% in series [1] (3 h); 0.3% in series [1] (6 h); 0.8% in series [1] (12 h); 1.4% in series [1] (24 h); 1.9% in series [1] (3 day). Besides, the Peptide release rate in series [1] (5 day) was 2.9%; in series [1] (7 day) it was 5.9%; in series [2] (pH 5.0), 83.3%; in series [2] (pH 5.5), 34.1%; in series [2] (pH 6.0) it was 32.2%; in series [2] (pH 6.5) it was 21.5%. Moreover, the figures for the Peptide release rate in series [2] (pH 7.0) and in series [2] (pH 7.4) were 4.6% and 0%, respectively. In addition, the “Inhibition of EBNA1 dimerization/oligomerization” value in series [3] is “eradicate all 90 mg EBNA1 dimers and oligomers”. The “Reduced p65 expression level, cytosolic fraction” value with p65 [4] was 85%; in the series with p65 [5] it was 87%. The “Responsive emission enhancement (lambda scan)” value in the series on EBV-positive C666 cells was “two-fold”. Also, the “Effect on average tumor size” value in the series with C666 derived xenografts (12.5 mg/kg, intravenous (tail vein), twice a week, 33 days) is reported as “no obvious effect on the tumor size”. Also, the Body weight entry with C666 derived xenografts (C666 tumor-bearing mice, 33-day experimental period) is on record as “slight reduction of body weight”.
